Assay [1] deals with T1, GST-RB fusion protein (UniProt P06400 1-928).
T1 construct: not shown: glutathione S-transferase tag of the pGEX-6P vector (Amersham/Pharmacia)
T1 sequence (looked up): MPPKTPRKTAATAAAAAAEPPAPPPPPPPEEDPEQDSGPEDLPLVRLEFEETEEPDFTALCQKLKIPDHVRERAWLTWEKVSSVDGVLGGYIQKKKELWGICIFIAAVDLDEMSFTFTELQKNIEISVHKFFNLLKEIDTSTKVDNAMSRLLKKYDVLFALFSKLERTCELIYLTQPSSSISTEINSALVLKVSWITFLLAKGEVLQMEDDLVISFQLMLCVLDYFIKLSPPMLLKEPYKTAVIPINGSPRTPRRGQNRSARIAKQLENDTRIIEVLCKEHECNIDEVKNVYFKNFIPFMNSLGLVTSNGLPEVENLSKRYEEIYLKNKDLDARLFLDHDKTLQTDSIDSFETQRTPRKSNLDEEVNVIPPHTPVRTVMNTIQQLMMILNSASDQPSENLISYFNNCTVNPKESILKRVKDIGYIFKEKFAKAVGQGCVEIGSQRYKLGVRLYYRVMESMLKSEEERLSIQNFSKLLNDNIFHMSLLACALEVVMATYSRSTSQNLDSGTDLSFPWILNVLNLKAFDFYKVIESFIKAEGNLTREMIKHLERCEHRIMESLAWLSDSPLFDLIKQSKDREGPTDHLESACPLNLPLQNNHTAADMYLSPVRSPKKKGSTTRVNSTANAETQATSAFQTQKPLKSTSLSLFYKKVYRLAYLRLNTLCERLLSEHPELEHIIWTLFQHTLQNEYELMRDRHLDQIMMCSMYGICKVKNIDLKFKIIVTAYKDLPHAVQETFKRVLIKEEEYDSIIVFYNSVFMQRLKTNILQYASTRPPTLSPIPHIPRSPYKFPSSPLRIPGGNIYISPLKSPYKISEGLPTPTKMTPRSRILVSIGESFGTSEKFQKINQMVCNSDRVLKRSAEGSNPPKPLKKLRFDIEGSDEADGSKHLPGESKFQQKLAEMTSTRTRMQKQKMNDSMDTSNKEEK
The experiment in a line: GST pull-down of S35-labeled in vitro translated protein with GST-RB.

The target in assay [2] is T1, GST-RB fusion protein. The experiment in a line: GST pull-down of S35-labeled in vitro translated protein with GST-RB on glutathione sepharose beads. The protocol:
GST-RB and GST were bound to glutathione sepharose beads and incubated with S³⁵-labeled in vitro translated PRMT1, PRMT2, PRMT3, and PRMT4. Co-precipitated labeled PRMTs were analyzed by SDS-PAGE. […] HA-tagged PRMT2 (+) or control vectors (−) were transfected in 293 cells. Cell lysates were immunoprecipitated with rabbit RB antibodies or IgG and followed by Western blot analysis using mouse HA and RB antibodies (upper panel). A Western blot using mouse HA antibodies detects HA-tagged PRMT2 (lower panel).
The crude cell lysate of the GST-fusion proteins was prepared and purified according to the manufacture's protocol (Amersham/Pharmacia). [³⁵S]-methionine-labeled protein was produced by in vitro transcription/translation using the TNT T7-coupled reticulocyte lysate system (Promega). [³⁵S]-methionine-labeled protein and GST-fusion protein bound to glutathione sepharose 4B beads were incubated in 500 μl of HNE buffer (50 mM Hepes, pH 7.8, 150 mM NaCl, 1 mM EDTA, 1 mM DTT, 1% NP40, and 1× protease inhibitor mix (Complete: Roche)) at 4° C. for 1 hour. Beads were washed four times with HNE buffer, and then analyzed on an SDS-PAGE gradient gel (4-15%). […]

B1: PRMT2(1-95) (enzyme)
chain: MATSGDCPRSESQGEEPAECSEAGLLQEGVQPEEFVAIADYAATDETQLSFLRGEKILILRQTTADWWWGERAGCCGYIPANHVGKHVDEYDPED
modifications: [35S]-methionine label
With B1, the binding result with GST-RB fusion protein [1] is recorded as “no binding”.

B2: S35-labeled in vitro translated PRMT3 (human) (enzyme, UniProt O60678 2-531, looked up)
chain: CSLASGATGGRGAVENEEDLPELSDSGDEAAWEDEDDADLPHGKQQTPCLFCNRLFTSAEETFSHCKSEHQFNIDSMVHKHGLEFYGYIKLINFIRLKNPTVEYMNSIYNPVPWEKEEYLKPVLEDDLLLQFDVEDLYEPVSVPFSYPNGLSENTSVVEKLKHMEARALSAEAALARAREDLQKMKQFAQDFVMHTDVRTCSSSTSVIADLQEDEDGVYFSSYGHYGIHEEMLKDKIRTESYRDFIYQNPHIFKDKVVLDVGCGTGILSMFAAKAGAKKVLGVDQSEILYQAMDIIRLNKLEDTITLIKGKIEEVHLPVEKVDVIISEWMGYFLLFESMLDSVLYAKNKYLAKGGSVYPDICTISLVAVSDVNKHADRIAFWDDVYGFKMSCMKKAVIPEAVVEVLDPKTLISEPCGIKHIDCHTTSISDLEFSSDFTLKITRTSMCTAIAGYFDIYFEKNCHNRVVFSTGPQSTKTHWKQTVFLLEKPFSVKAGEALKGKVTVHKNKKDPRSLTVTLTLNNSTQTYGLQ
modifications: [35S]-methionine label
Regarding B2, the binding result in the assay with GST-RB fusion protein [2] is given as “no binding”.

B3: S35-labeled in vitro translated PRMT4 (CARM1) (human) (enzyme, UniProt Q86X55 2-608, looked up)
chain: AAAAAAVGPGAGGAGSAVPGGAGPCATVSVFPGARLLTIGDANGEIQRHAEQQALRLEVRAGPDSAGIALYSHEDVCVFKCSVSRETECSRVGKQSFIITLGCNSVLIQFATPNDFCSFYNILKTCRGHTLERSVFSERTEESSAVQYFQFYGYLSQQQNMMQDYVRTGTYQRAILQNHTDFKDKIVLDVGCGSGILSFFAAQAGARKIYAVEASTMAQHAEVLVKSNNLTDRIVVIPGKVEEVSLPEQVDIIISEPMGYMLFNERMLESYLHAKKYLKPSGNMFPTIGDVHLAPFTDEQLYMEQFTKANFWYQPSFHGVDLSALRGAAVDEYFRQPVVDTFDIRILMAKSVKYTVNFLEAKEGDLHRIEIPFKFHMLHSGLVHGLAFWFDVAFIGSIMTVWLSTAPTEPLTHWYQVRCLFQSPLFAKAGDTLSGTCLLIANKRQSYDISIVAQVDQTGSKSSNLLDLKNPFFRYTGTTPSPPPGSHYTSPSENMWNTGSTYNLSSGMAVAGMPTAYDLSSVIASGSSVGHNNLIPLANTGIVNHTHSRMGSIMSTGIVQGSSGAQGSGGGSTSAHYAVNSQFTMGGPAISMASPMSIPTNTMHYGS
modifications: [35S]-methionine label
B3: in the assay with GST-RB fusion protein [2], the binding result is recorded as “no binding”.

B4: PRMT2(1-95&219-433) (enzyme)
chain: MATSGDCPRSESQGEEPAECSEAGLLQEGVQPEEFVAIADYAATDETQLSFLRGEKILILRQTTADWWWGERAGCCGYIPANHVGKHVDEYDPEDFEFMIESILYARDAWLKEDGVIWPTMAALHLVPCSADKDYRSKVLFWDNAYEFNLSALKSLAVKEFFSKPKYNHILKPEDCLSEPCTILQLDMRTVQISDLETLRGELRFDIRKAGTLHGFTAWFSVHFQSLQEGQPPQVLSTGPFHPTTHWKQTLFMMDDPVPVHTGDVVTGSVVLQRNPVWRRHMSVALSWAVTSRQDPTSQKVGEKVFPIWR
modifications: [35S]-methionine label in the binding assay
notes: the same deletion was expressed from pVR1012 in the U2OS reporter assay; also called Int-del
With B4, in the assay with GST-RB fusion protein [1], the binding result is reported as “no binding”.

The values are drawn from patent US20060239990A1 (published 2006).
